Data reported in patent publication US20030064410A1 (ECOLE POLYTECHNIQUE FEDERALE DE LAUSANNE EPFL, published 2003).
Square brackets hold non-standard residues; d marks the D form. Ends that are not written are not given here. sY = N[C@@H](Cc1ccc(OS(=O)(=O)O)cc1)C(=O)O

Assays:
[1] = molecular target: T1, VEGF165 (vascular endothelial cell growth factor, 165 isoform), recombinant from E. coli, refolded dimer (human, UniProt P15692-4 27-191, Example 1: about 4 AMCA coumarins per VEGF165, sites not given; Example 3 screen: biotinylated, sites not given); test: SPR
T1 construct: Tags from the pRSET vector are not mentioned; also called coumerin-VEGF; coumarin-labeled VEGF165
T1 sequence (P15692 other isoform, or with tags, fused parts or gaps limits assumed): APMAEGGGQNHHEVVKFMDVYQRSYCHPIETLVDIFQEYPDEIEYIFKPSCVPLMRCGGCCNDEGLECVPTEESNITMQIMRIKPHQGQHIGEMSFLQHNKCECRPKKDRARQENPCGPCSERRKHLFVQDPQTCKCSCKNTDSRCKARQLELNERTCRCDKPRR

[2] = molecular target: T1, VEGF165 (vascular endothelial cell …); test: on-bead colorimetric screen, about 0.25 nM biotinylated VEGF165 with 1 equivalent of heparin
Procedure: The resin was rinsed with TBS (5×) and 200 μL of 5-bromo-4-chloro-3-indoylphosphate p-toluidine salt/nitro blue tetrazolium chloride (BCIP/NBT) reagent was added to develop a blue/black color where the streptavidin alkaline phosphatase was present. Nonspecific adsorption of the streptavidin alkaline phosphatase was detected as blue/black stained beads. After 15 minutes, the resin was rinsed with TBS (5×) prior to adding 100 μL of about 0.25 nM of biotinylated VEGF₁₆₅ in the presence or absence of 1 or 10 equivalents of heparin sodium salt (isolated from porcine intestinal mucosa) in 400 μL of blocking buffer. The mixture was shaken overnight, the solution removed, the resin washed with TBS (6×), and 1 mL streptavidin alkaline phosphatase (diluted 1:1000 from a 1 mg/mL solution) was added. The streptavidin alkaline phosphatase preferentially attached to beads having VEGF since the VEGF was attached to biotin, which is a ligand for the streptavidin on the streptavidin alkaline phosphatase. After 2 h the solution was removed and rinsed with TBS (5×) and Fast Red substrate (PIERCE) was added to make the presence of the alkaline phosphatase visible by making a red color. Positive beads were those that were stained red. The red beads were selected, and subjected to 8M guanidine-HCl, pH=1.4 for 20 minutes prior to rinsing with H20 (3×) and DMF until residual color was removed. […]

| Kd [1] | binding result [2] | Binder |
| --- | --- | --- |
| 140 nM | – | [sY][sY]GG[sY]D[sY]G (not fully specified (N-terminus, C-terminus); printed as Y(SO3)Y(SO3)GGY(SO3)DY(SO3)G, Independently synthesized free peptide used in SPR) [Y(SO3)Y(SO3)GGY(SO3)DY(SO3)G] |
| – | binds | [sY][sY]GG[sY]D[sY]GGGG-{PEGA resin} (not fully specified (N-terminus); printed as Y(SO3)Y(SO3)GGY(SO3)DY(SO3)) [Y(SO3)Y(SO3)GGY(SO3)DY(SO3)-Gly-Gly-Gly-Gly-PEGA bead] |
| – | binds | F[sY]GG[sY]D[sY]GGGG-{PEGA resin} (not fully specified (N-terminus)) [FY(SO3)GGY(SO3)DY(SO3)-Gly-Gly-Gly-Gly-PEGA bead] |
| 3100 nM | – | S[sY]D[sY]G (not fully specified (C-terminus); printed as SY(SO3)DY(SO3)G, Independently synthesized free peptide used in SPR) [SY(SO3)DY(SO3)G] |
